US20220242941A1 (NOVOBIND LIVESTOCK THERAPEUTICS, published 2022)

T1: Eimeria maxima MIC2 (Eimeria maxima)
T1 construct: Recombinant antigen coated on ELISA wells; also called EmMIC2
T1 chain: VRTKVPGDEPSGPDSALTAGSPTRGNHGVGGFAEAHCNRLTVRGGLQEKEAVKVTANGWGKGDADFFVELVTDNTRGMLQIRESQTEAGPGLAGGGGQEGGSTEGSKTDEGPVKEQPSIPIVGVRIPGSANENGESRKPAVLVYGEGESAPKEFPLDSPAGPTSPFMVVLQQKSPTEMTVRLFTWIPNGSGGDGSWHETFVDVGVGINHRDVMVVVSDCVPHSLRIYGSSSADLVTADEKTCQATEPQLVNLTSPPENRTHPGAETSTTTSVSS

B1: NBX0718 (VHH)
VHH: QVQLQESGGGLVQAGGSLRLSCAANGRTFSSYAMAWFRQAPGKEREFVAAVGWSGGRTYYTDSVKGRFTISRDNAKDTVYLQMNSLKPEDTAVYYCAATRGWAQATLLYDYDYWGQGTQVTVSS
B2: NBX0708 (VHH)
VHH: QVQLQESGGGLVQAGDSLSLSCVDSKRTADRYVMHWFRQVPGKDREFVAAISGNGLVRNYADSVKGRFTISRDNAKNMVYLQMKSLKPEDTAVYYCAADFVLDSRWRYVPYWGQGTQVTVSS
B3: NBX0750 (VHH)
VHH: QVQLQESGGGLVQPGDSLRLSCAPSGRTFSGYVTGWFRQAPGMEREFVAAITWSGDSTYYADSVKGRFQISRDSAKNTVYLQMNSLKPEDAGVYYCAVKSQTYSTDYVQPRRYAYWGQGTQVTVSS
B4: NBX0716 (VHH)
VHH: QVQLQESGGGLVQAGGSLSLSCTASGRTFSTFPVAWFRQAPGKEREFVARINWFTTDTYYADSVKGRFTISRDSAKNTVYLQMNALKPEDTAIYYCAAARSNTGTSRFDYWGQGTQVTVSS
B5: NBX0713 (VHH)
VHH: QVQLQESGGGLVQPGGSLRLSCAASGRTFRRNAMGWFRQAPGKAREFVATISWSGNRAYSDSVKGRFTISRDNGKNLVSLQMNSLKPEDTAVYYCAAARERITSTYYTPHVLTDYDAWGQGAQVTVSS
B6: NBX0732 (VHH)
VHH: QVQLQESGGGLVQTGGSLRLSCAASGRTFRRNAMGWFRQAPGKAREFVATITWSGNRAYSDSVKGRFTISRDNEKNLVSLQMNSLKPEDTAVYYCAAARERITSTYYTPHVLTEYDAWGQGAQVTVSS
B7: NBX0712 (VHH)
VHH: QVQLQESGGGLVQTGGSLRLSCAASGRTFTRNAMGWFRQAPGKAREFVAVISWSGNRAYSDSVKGRFTISRDNGKNLVSLQMNSLKPEDTAVYYCAAAREAITSTYYTPHVLTDYDAWGQGAQVTVSS
B8: NBX0715 (VHH)
VHH: QVQLQQSGGGLVQAGGSLRLSCAASGRTFSRNAMGWFRQAPGKAREFVATISWSGNRAYSDSVKGRFTISRDNEKNLVSLHMNSLKPEDTAVYYCAAARERITSTYYTPHVLTDYDAWGQGAQVTVSS
B9: NBX0707 (VHH)
VHH: QVQLQESGGGLVQAGGSLRLSCAASGSIFSRDTMAWYRQVPGEQRELVAFITNFGGTNHADSVKGRFTISRDNAKNTVYLQMNSLKPEDTAVYYCAAGLVSLRTHTWEYWGQGTQVTVSS
B10: NBX0714 (VHH)
VHH: QVQLQESGGGLVQAGGSLRLSCAASGSIFSRDTMAWYRQVPGEQRELVAYITNFGGTNHAGSVKGRFTISRDNAKNTVYLQMNSLKPEDTAVYYCAAELVSLRTHTWEYWGQGTQVTVSS
B11: NBX0752 (VHH)
VHH: QVQLQESGGGLVQAGGSLRLSCAASGSIFSRDNMAWYRQVPGEQRELVALITNFGGTNHADSVKGRFTISRDNAKNTVYLQMNSLKPEDTAVYYCAAGLVSLLTHTWEYWGQGTQVTVSS
B12: NBX0709 (VHH)
VHH: QVQLQESGGGLVQAGGSLRLSCAASGSIFSRDTMAWYRQVPGEQRELVAYITNFGGTNHADSVKGRFTISRDNAKNTVYLQMNSLKPEDTAVYYCAAGLVSLHTHTWEYWGQGTQVTVSS
B13: NBX0734 (VHH)
VHH: QVQLQESGGGLVQAGGSLRLSCAASGSIFSRDTMAWYRQVPGEQRELVAYITNFGGTNHADSVKGRFTISRDNAKNTVYLQMNSLKPEETAVYYCAAGLVSLRTHTWEYWGQGTQVTVSS
B14: NBX0731 (VHH)
VHH: QVQLQESGGGLVQPGGSLRVSCAASGFTFSRDTMAWYRQVPGEQRELVAYITNFGGTNHADSVKGRFTISRDNAKNTVYLQMNSLKPEDTAVYYCAAGLVSLRTHTWEYWGQGTQVTVSS
B15: NBX0717 (VHH)
VHH: QVQLQESGGGLVQAGGSLRLSCAASTNIATFTTMGWYRQAPGKERELVATTTPWGATTSYADSVKGRFTISNDNAKNTVNLQMNSLKPEDTAVYYCNAQQDIPTTQTYWGQGTQVTVSS
B16: NBX0711 (VHH)
VHH: QVQLQQSGGGLVQPGGSLRLSCAASRSIRSADAMAWYRQAPGKQRVWVATITSGGSTYYTDSVKGRFTISRDNAKSTVYLQMSSLKPEDTAVYYCNAVGDRTSYWGQGTQVTVAS
B17: NBX0733 (VHH)
VHH: QVQLQQSGGGLVQPGGSLRLSCAASGSIFSVDAMAWYRQAPGKQREWVATFTKGGSTYYAGSVKGRFTISRDNAKNTVYLQMSSLKPEDTAVYYCNAVGDRTGAWGQGTQVTVAS
B18: NBX0740 (VHH)
VHH: QVQLQESGGGLVQAGGSLRLSCAASGRTFVNYNMGWFRQAPGKEREFVATINWSGGSTYYAGSVKGRFTISRDSAKNTVYLQMNKLKPEDTAVYYCAAEVGYGYQGPPLTTPSMYDYWGQGTQVTVST
B19: NBX16043 (VHH)
VHH: QVQLQESGGGLVQAGGSLRLSCAASGIAFSMFDMVWYRQAPGKQRELVASVSDGGSTAYADSVKGRFTISRDNAKKMVYLQMNSLKPEDTAVYYCKAARSWAYGSGYWGQGIQVTVSS
B20: NBX16036 (VHH)
VHH: QVQLQESGGGLVQAGGSLRLSCVALGNIGWINDMGWYRQAPGKERELVARISSAEATNYADAVKGRFTISRDDAKNTVYLQMNSLKPEDTAVYSCHTRRWYDDGYDYDTWGQGTQVTVSS
B21: NBX16033 (VHH)
VHH: QVQLQESGGGTVQAGGSLRLSCAVSGSTFSSYSMNWYRQGPGNQREWVGGIRSNDSTYYADSVKGRFTISRDNAKNAWNLQMNSLKSEDTAVYYCNFWDGSFNQYWGQGTQVTVSA
B22: NBX16034 (VHH)
VHH: QVQLQESGGGVVQAGGSLRLSCVASGSDTSVYAMRWWRQVPGKERLLLASITSGGTVRYAESVKGRFTISRDDAKNTLYLQMNSLKTEDTAVYLCNAERVLARQNYWGQGTQVTVSS
B23: NBX16035 (VHH)
VHH: QVQLQESGGGLVQAGGSLRLSCAASGSIFSINVIGWYRQVPGKERELVANSGSTTKYADSVKGRFTISRDNAKNTVDLQMNSLKPEDTAVYYCNAVVTSRTSLGLRSYVYWGQGTQVTVSS
B24: NBX16037 (VHH)
VHH: QVQLQQSGGGLVQAGGSLRLSCAASGSIFSINVIGWYRQVPGKERELVAKSDRTTKYADSVKGRFTISRDNAKNTVDLQMNSLKPEDTAVYYCNAVVTSRTSQGLRSYAYWGQGTQVTVSS
B25: NBX16041 (VHH)
VHH: QVQLQESGGGLVQAGGSLRLSCAASGSIFSINVIGWYRQAPGKERELVANSGSTTKYADSVKGRFTISRDNAKNTVDLQMNSLKPEDTAVYYCNAVVTSRTSLGLRSYAYWGQGTQVTVSS
B26: NBX16042 (VHH)
VHH: QVQLQESGGGLVQAGGSLRLSCVASGITFNFNYYVMGWYRQAPGKQRELVARISDGGNTNYADSVKGRFTISRDNTKNTGYLQMNSLKPEDTAIYYCNLRRSWAPADNGHWGQGTQVTVSS
B27: NBX16039 (VHH)
VHH: QVQLQQSGGGLVQAGGSLRLSCTTSGIIFSFSLLNVGWYRQAPGKERELVARMSTAGNTYYSTSVKDRFTISRDNGKNTVDLQMNSLNADDTAVYYCNLRRSWAPSDSGFWGQGTQVFVSS
B28: NBX16040 (VHH)
VHH: QVQLQESGGGMVQAGGSLRLSCAASGTTITINTMRWYRQPPGKERELVASIVPSGKTYYADSVKGRFTISRDNHKNTMYLQMNSLKPEDTAVYYCNSDGRFRGIGTYWGQGTQVTVSS
B29: NBX16038 (VHH)
VHH: QVQLQQSGGGLVQSGGSLRLSCTATRSTISGYGGRWYRQAPGKQREFVALLSSGGMTRYADSVMGRFTISRDDIKNTLYLQMNTLKPEDTAVYYCNTFDGAWGQGTQVTVSS

Target: T1, Eimeria maxima MIC2
Assay: phage ELISA, antigen-coated wells;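 note: antigen dissolved in PBS and coated onto wells, with negative-control wells holding PBS alone as the reference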
Description: Black bars show binding to wells coated with the antigen specified in Tables 1 and 2 dissolved in phosphate-buffered saline (PBS). Grey bars are negative controls that show binding to wells coated with PBS only.

Binder | binding relative to PBS-coated wells [times]
B1 | ≥ 4
B2 | ≥ 4
B3 | ≥ 4
B4 | ≥ 4
B5 | ≥ 4
B6 | ≥ 4
B7 | ≥ 4
B8 | ≥ 4
B9 | 4
B10 | ≥ 4
B11 | ≥ 4
B12 | ≥ 4
B13 | ≥ 4
B14 | ≥ 4
B15 | ≥ 4
B16 | ≥ 4
B17 | ≥ 4
B18 | ≥ 4

Each binder was assayed against T2, GST fusion of the EtAMA1-binding peptide of EtRON2 (Eimeria tenella, UniProt P08515 1-218 = GST) (assay: phage ELISA, wells coated with GST-RON2 peptide).
T2 construct: Expressed in E. coli, purified as the other antigens but without TEV cleavage, so a His tag and TEV site probably remain; also called GST-RON2 peptide
T2 sequence (P08515 1-218, tags or fused parts left off): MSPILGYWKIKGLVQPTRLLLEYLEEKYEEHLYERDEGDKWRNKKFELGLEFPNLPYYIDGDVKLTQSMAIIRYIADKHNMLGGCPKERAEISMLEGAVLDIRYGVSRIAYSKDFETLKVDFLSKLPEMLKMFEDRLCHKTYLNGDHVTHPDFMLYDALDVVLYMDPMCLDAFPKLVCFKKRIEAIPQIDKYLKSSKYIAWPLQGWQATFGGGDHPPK

Binder | binding relative to GST-coated wells [times] | binding relative to PBS-coated wells [times]
B19 | ≥ 3 | ≥ 4
B20 | ≥ 3 | ≥ 4
B21 | ≥ 3 | ≥ 4
B22 | ≥ 3 | ≥ 4
B23 | ≥ 3 | ≥ 4
B24 | ≥ 3 | ≥ 4
B25 | ≥ 3 | ≥ 4
B26 | ≥ 3 | ≥ 4
B27 | ≥ 3 | ≥ 4
B28 | ≥ 3 | ≥ 4
B29 | ≥ 3 | ≥ 4
